# Experimental data reported in the supplement of paper PMC12042874.
# ± gives the uncertainty stated by the source.
# Experiment: amyloid nucleation score (Sup35N fusion, yeast selection) (log enrichment); library NNK1; higher = more nucleation; inactive = no reads after selection
# Outline: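 Psi-negative yeast expressed Sup35N fused to peptides of 20 random codons. They were induced 24 hours with 100 μM copper sulfate, grown 7 days at 30°C without adenine and uracil, and their plasmid inserts from input and output were Illumina-sequenced. The nucleation score is the DiMSum log enrichment of output over input reads, centred on the mode score of non-aggregating sequences. Sequences with under 100 input reads were excluded.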
row,Substance,amyloid nucleation score
1,GTTLDYWRVMEMSGDFTSFC,-0.073 ± 0.68
2,GTYRRQKMELMYSSLGLFGC,-0.634 ± 0.56
3,GVALFVIGLNSQIVANSYTS,6.285 ± 0.055
4,GVAWMFLCYVLAA,0.575 ± 0.27
5,GVCVEFCLRGSRFWLMKNKA,0.383 ± 0.84
6,GVCWLKIRALPDSYWLVFL,-0.776 ± 0.74
7,GVDGFWRMVSKLPHGRLDQH,-0.123 ± 0.38
8,GVDSFTDSIEYKVGRRVFRH,1.21 ± 0.76
9,GVFMKYQ,0.18 ± 1.2
10,GVGLDCFDRTWFWMFQTPQC,0.483 ± 0.35
11,GVGSSFSTSKAYWVGYECIT,-0.217 ± 0.41
12,GVLEVIYVSLFRGRAESVFR,1.67 ± 0.34
13,GVLRHNCFIESGRIISVMVT,-0.404 ± 0.65
14,GVLVKNQGLLVNAIHSMQTN,-0.797 ± 2.4
15,GVMACDMCCPNKRVSEPRAS,-0.278 ± 0.41
16,GVMIWRQRWRKVIVGGALRW,-0.217 ± 0.63
17,GVNCKYVVLKNNVIWTHCLR,6.453 ± 0.05
18,GVPDFA,0.685 ± 0.7
19,GVQAVSSPTSVFK,0.462 ± 0.85
20,GVQFQVVRMSCSVLSARLRL,1.29 ± 0.18
21,GVSVSYLDGGMAWPNEGGRK,0.19 ± 0.62
22,GWCRG,inactive
23,GWENSLYNFFCLW,0.342 ± 0.35
24,GWIVAMRKR,0.236 ± 1.6
25,GWMVRMLEHYHPAV,-0.226 ± 0.42
26,GWNVTEIYFFMWVRITSGWM,2.27 ± 0.19

row,Substance,amyloid nucleation score
1,GWYSFLPSRNYFK,4.92 ± 0.072
2,GYGWFLCTIHVQKLVCWPTL,-0.114 ± 1.1
3,GYHSFGLVHEGETGK,inactive
4,GYHSKFRWVLLFVVTSASGE,inactive
5,GYHSMLSLDDQIFVKLHDAK,0.135 ± 1.2
6,GYLSGSMSDETGTPDMCTRG,0.353 ± 0.51
7,GYVDPFRLYQGLMIFDYVGS,-0.332 ± 0.44
8,HAIFCLSKLTFLGPILGSFT,7.112 ± 0.048
9,HAKHLLRKQWLDGCA,inactive
10,HANCG,-0.155 ± 0.59
11,HASWVRAITWVHQAGTYVML,-0.693 ± 1.3
12,HCCFTGRKGYSRFAVLSCST,1.11 ± 0.48
13,HCLGIRMVRRYILDRRCHWV,inactive
14,HCMLGMFHWVRRQVYRSTKW,2.34 ± 0.25
15,HCRKYTKTSR,-0.327 ± 0.47
16,HDGLLVFAFHY,-0.378 ± 1.4
17,HELMLQILGLAFLLGMFAGV,-0.747 ± 0.63
18,HFLTDMNFKRARDSDLSSVW,0.489 ± 0.29
19,HFVILVLFMMMSSIGMVTRA,5.16 ± 0.054
20,HFWLDARSRAKKPAQGIIKG,-0.426 ± 0.34
21,HGGKCLSMRYRDCALWTFQG,0.031 ± 1.2
22,HGGRDVCDKGVSSRGHRW,0.276 ± 0.79
23,HGLKWGFQLTNLSMLVTSCM,-0.475 ± 1.1
24,HHAGPSG,0.72 ± 0.46
25,HHALHAKAERLTPPMPPCKM,0.714 ± 0.84
26,HHCHSSGL,0.981 ± 0.93

row,Substance,amyloid nucleation score
1,HHGRFRCKAVCRRKCGLVQV,inactive
2,HIFWYCHMFPVVMASIIINS,0.637 ± 0.59
3,HILRIWLRGLWMILYRTYEN,-0.513 ± 0.84
4,HLLRRHYNCLSHLGWCNGLF,-0.024 ± 0.29
5,HLNLIVTRFASIWVAAFMCR,-0.282 ± 0.77
6,HLPFYLCF,1.57 ± 0.43
7,HLPTKLPSRIRYRCYDFHVI,-0.546 ± 0.97
8,HLSSTVITLVPCRLEMYLEG,0.55 ± 0.25
9,HLYGVR,0.267 ± 0.84
10,HMITSLRWSSLRSWTQVWLR,inactive
11,HMRGLG,6.77 ± 0.083
12,HMSDNGLSSMKRVYVVYPTT,-0.049 ± 0.23
13,HMSWMYEWMNVTCKVNMCR,2.06 ± 0.24
14,HNCCDEVCGSNSGLFFRFMN,0.979 ± 0.65
15,HNYSDFFNESWHNGLIYSY,-0.571 ± 1
16,HPMITRFLAD,0.413 ± 1.4
17,HQINRWRLLPRGGTFKDGHN,0.703 ± 0.54
18,HQLGQYHTACHAPSARCTPL,-0.221 ± 0.52
19,HQYVMFESLTYICLPLRDRL,4.98 ± 0.1
20,HRCQSSSRRPMNGFGTCQRS,0.321 ± 0.34
21,HRGLSLLAGVSALVWKSQMT,-0.4 ± 1.1
22,HRGVLQLR,0.764 ± 0.84
23,HRITSFVYYFGLSSEFYIYP,0.009 ± 1.1
24,HRIWRLLALNT,-0.583 ± 0.54
25,HRNSCVPPGVAGIVTVCL,0.363 ± 0.6
26,HRYRGRNLLILCRNDDWCDF,1.26 ± 0.47

row,Substance,amyloid nucleation score
1,HSASQLPYYQY,0.498 ± 0.97
2,HSCSVPLWIWRFSVRAKGCK,0.562 ± 0.57
3,HSDVHNCFLLCRCTGYCLYS,3.96 ± 0.16
4,HSGTSCWVGIIDV,-0.248 ± 0.28
5,HSHHGSSV,1.08 ± 0.76
6,HSIERTWPVRRPKCESKLKF,-0.91 ± 1.3
7,HSRRCYNESS,1.7 ± 0.55
8,HSSDMCLSGLM,0.002 ± 1.4
9,HSWGRKVF,-1.1 ± 0.47
10,HTISENRSGLVTP,-0.966 ± 0.9
11,HTTFKGKSEAATRIIATQAR,-0.011 ± 0.41
12,HTVKAK,-2.11 ± 1.1
13,HTYDGHSVSGCTGHVMFLSS,-0.021 ± 0.41
14,HVFSQ,-0.756 ± 2.4
15,HVHRIN,-0.717 ± 1.1
16,HVIQKSN,-0.988 ± 0.5
17,HVLDRQLSPMDSNSYGCVAT,0.208 ± 0.28
18,HVLMIRWLWWGISRACKNSR,-0.193 ± 1.6
19,HVVVRRIY,-0.065 ± 0.34
20,HVWSILAISVYNAHRGSRV,7.134 ± 0.051
21,HVYCLRWRYC,-0.318 ± 0.35
22,HVYLTWTGLVGLKWCSGCSA,-0.856 ± 2.4
23,HVYVWKRTVPGIGRDQHNSR,1.81 ± 0.6
24,HWCLMGLCKLFSSARPPLKK,0.085 ± 0.8
25,HWFESDFAI,inactive
26,HWLFWCQR,inactive

row,Substance,amyloid nucleation score
1,HWLQY,0.156 ± 0.43
2,HWVLDWQAQVRMPRNSVSGL,inactive
3,HYDLWCLMFFLVSMMSVNCH,0.972 ± 0.54
4,HYIIIRFLNAELTLCHLRMI,-1.61 ± 1.7
5,HYRCVRGYSFFVLLCDSRIQ,-0.497 ± 0.93
6,HYRFCYCHSTKS,1.76 ± 0.42
7,HYTLIGIY,inactive
8,IACCVRSVECGRGCQLRGLA,0.217 ± 0.83
9,IAILIYASAFKSSSGCGVKS,0.177 ± 0.64
10,IALLNGNNLSPT,9.502 ± 0.052
11,IAMSIKWRRW,2.8 ± 0.093
12,IAPMSRRFEGMACSFTDEEA,inactive
13,IAPSNFRGWMAHYKV,0.213 ± 0.57
14,IASECWET,-0.391 ± 0.52
15,IASVQLS,1.16 ± 0.53
16,IAVFRYFDSYRPFTRVSVLF,inactive
17,IAVPRRQPINLSN,0.668 ± 0.56
18,ICCVVESLCYSVMFKHIS,4.55 ± 0.079
19,ICFRIIVAIVQRV,1.14 ± 0.38
20,ICNFVSLFNWK,-0.025 ± 0.79
21,ICNSLMEDDMGASEVMC,0.734 ± 0.57
22,ICQYPPLEVLARYGQIQDIM,0.207 ± 0.3
23,ICSYTSIVYLFWDDLSLSTL,1.7 ± 0.64
24,ICYVNVL,-1.18 ± 1.7
25,IDLGFLNKCLCRNSCCVGEA,1.81 ± 0.17
